Reference: article PMC7232456, “Loxoscelism: Advances and Challenges in the Design of Antibody Fragments with Therapeutic Potential” (Toxins, 2020)

Experiments:
[1] = target: T1, recombinant SMase D LiD1 from L. intermedia (Loxosceles intermedia, UniProt P0CE81); test: ELISA; details: both partners purified
T1 construct: also called rLiD1; recombinant sphingomyelinase D

[2] = target: T1, recombinant SMase D LiD1 from L. …; test: SPR; details: both partners purified

T1 sequence (P0CE81 27-306): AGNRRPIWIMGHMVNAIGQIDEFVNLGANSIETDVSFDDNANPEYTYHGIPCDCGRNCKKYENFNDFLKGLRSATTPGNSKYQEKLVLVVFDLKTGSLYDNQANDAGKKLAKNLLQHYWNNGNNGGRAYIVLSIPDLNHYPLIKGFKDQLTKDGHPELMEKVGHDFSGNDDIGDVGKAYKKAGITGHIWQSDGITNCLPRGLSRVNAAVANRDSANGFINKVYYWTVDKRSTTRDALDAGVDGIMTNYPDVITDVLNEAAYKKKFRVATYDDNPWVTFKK

Row | Binder | binding result [1] | Kd [2] [nM] | koff [2] [s⁻¹] | kon [2] [M⁻¹ s⁻¹]
1 | scFv15hLi7m (scFv, V domains shown, also called second generation of the humanized scFv; monomeric scFv) VH: QVQLQQSGAEVKKPGASVKVSCKASGYAFSSSWMNWVRQAPGQGLEWMGRIYPGDGDTNYNQKFQGRVTMTRDTSTSTVYMELSSLRSEDTAVYFCARWTYGYSKYYYFDDWGQGTLVTVSS VL: DIQMTQSPSSLSASVGDRVTITCRASQSLLWNVNENNYLSWYQQKQGKAPKLLIYGASILESGVPSRFSGSGSGTDFTLTISSLQPEDFATYYCQHNHGSFLPYTFGQGTKLEIK | binds |  |  | 
2 | scFv5hLi7m (scFv, V domains shown, also called (scFv5hLi7m)2; dimeric scFv5hLi7m) VH: QVQLQQSGAEVKKPGASVKVSCKASGYAFSSSWMNWVRQAPGQGLEWMGRIYPGDGDTNYNQKFQGRVTMTRDTSTSTVYMELSSLRSEDTAVYFCARWTYGYSKYYYFDDWGQGTLVTVSS VL: DIQMTQSPSSLSASVGDRVTITCRASQSLLWNVNENNYLSWYQQKQGKAPKLLIYGASILESGVPSRFSGSGSGTDFTLTISSLQPEDFATYYCQHNHGSFLPYTFGQGTKLEIK | binds |  |  | 
3 | scFv15hLi7 (scFv, V domains shown, also called humanized scFv; first generation of the humanized scFv) VH: QVQLQQSGAEVKKPGASVKVSCKASGYAFSSSWMNWVRQAPGQGLEWMGRIYPGDGDTNYNQKFQGRVTMTRDTSTSTVYMELSSLRSEDTAVYYCARWTYGYSKYYYFDDWGQGTLVTVSS VL: DIQMTQSPSSLSASVGDRVTITCRASQSLLWNVNENNYLSWYQQKPGKAPKLLIYGASILESGVPSRFSGSGSGTDFTLTISSLQPEDFATYYCQHNHGSFLPYTFGQGTKLEIK |  | 56.6 | 0.0103 | 182000
